Laboratory results taken from US20110009474A1, “SIRTUIN BASED METHODS AND COMPOSITIONS FOR TREATING BETA-CATENIN-RELATED CONDITIONS” (President and Fellows of Harvard College, priority 2007, published 2011).

Target: endogenous β-catenin (human) (UniProt P35222)
Assay: cell-based or functional assay

Sequence of endogenous β-catenin (human) (P35222 2-781 limits assumed): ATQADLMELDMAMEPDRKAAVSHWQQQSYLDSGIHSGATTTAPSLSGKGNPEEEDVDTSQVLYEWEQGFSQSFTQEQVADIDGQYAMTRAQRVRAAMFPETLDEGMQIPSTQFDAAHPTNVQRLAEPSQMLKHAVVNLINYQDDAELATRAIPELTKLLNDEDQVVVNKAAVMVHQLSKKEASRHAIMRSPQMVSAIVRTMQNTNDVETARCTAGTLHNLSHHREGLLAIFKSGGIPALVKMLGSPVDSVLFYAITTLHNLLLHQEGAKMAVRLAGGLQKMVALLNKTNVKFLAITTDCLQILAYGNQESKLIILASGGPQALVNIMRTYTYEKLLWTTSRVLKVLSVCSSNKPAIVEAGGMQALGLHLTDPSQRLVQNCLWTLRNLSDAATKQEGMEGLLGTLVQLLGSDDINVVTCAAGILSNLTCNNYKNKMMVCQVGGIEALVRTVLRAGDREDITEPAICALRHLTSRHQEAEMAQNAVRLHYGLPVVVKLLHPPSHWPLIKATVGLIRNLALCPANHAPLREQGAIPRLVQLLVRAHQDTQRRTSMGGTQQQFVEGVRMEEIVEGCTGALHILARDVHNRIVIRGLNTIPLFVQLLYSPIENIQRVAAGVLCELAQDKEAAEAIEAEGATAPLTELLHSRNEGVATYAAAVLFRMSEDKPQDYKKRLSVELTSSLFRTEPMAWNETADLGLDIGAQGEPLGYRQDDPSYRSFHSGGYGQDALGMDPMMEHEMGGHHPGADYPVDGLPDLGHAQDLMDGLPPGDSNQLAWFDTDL

**Q.** Which fold decrease in Super8XTopflash-Luciferase-PEST reporter activity in DLD1 cells does the source give for “SIRT1 overexpressed from pBABE-Puro-hSir2(SIRT1) (from UniProt Q96EB6 2-747)” here?
**A.** 2 fold
